The data set in a line: label from the status in PepcDB records.

For the sequence “MIDELRALAVFAKTTETGSFRAAARALGLAPSVVSHHVSQLESRLGVALLYRSTRRLSLTPDGQALYGHAQAMLQAAETGLNELAGRAAEPAGTLRLSLPAFFARGPLTTSLAAFSRCHPKVELELDYSDEKRDLIRDGIDLAIRIGELQDSALKSRRLFDMPRLLVAAPSLLDARGEPASPAELADWPWLGIRMRAKRKTLIDAAGRRHDFAIQPRITANSVDAACQLAIAGCGLATPPAFLVENELAAGQLRVVLPDCQVEALGVYAVWPANAARESLTLRLVRFLAELPPHQ”, the protein production entry is reported as “failed”.

With “MIDEWPVPTAAAAVIGPSGVLATHGDDAKPFALASVTKLLVARAAQVAIEEGVVELDTPAGPDGSTVRHLLAHTSGVAMNSADTVAQVGQRRVYSNFGFGLLAHAIEDAAEIEFGRYLTEAVFEPLGMSTSKLLGGADAAGFGVTSTVSDLARFAGDLLRPALVSQQMHDEATSVQFPGVNGVLPGFGSQRPNDWGLGFEIRDGKTPHWTGSSNSPRTFGHFGQSGTFLWVDPVADLALLVLTDRDFGDWTYPLWPAISDGVLREIGTHLEHHHHHH”, the protein production entry is on record as “failed”.

For “MIDLKKIKRFAQEIHDKNNDGHGFDHIERVVALARKILLTEPSANQELVLATYLHDTYDEKLTDDVPKQKVKVAQFLNELKIDKKLIDELFMIIDNMSFSSNLIERKTLSLNGQIVQDADRLDAMGAWGIVRTLEYGWAKNRVFYDPNLPPLDYNSKEDYHSQKNNSTLNHFYEKLFLLKDLLNTTEGKRLGEKRDKIMHLFVSQIEEEYKETHLLEHHHHHH”, the protein production result was “failed”.

On to “MIDMFPMEKGEEQETYELIVRVFHKYVAPVYSENGVARFLGMLSPEGLSEMNNGKNSFVIVARDQSKIIGMISVINDSHIALFFVSPRYQGKGIGKNILDEAIKNCLNRNPELSAVTVSSSPNSKSFYEEAGFEVIGLEHHHHHH”, for which the protein production entry is listed as “not failed”.

In the case of “MIDNENNVNEPAEEESFAELFEKSNRRTERLRPGSKVDARVLKIGAEWVFLDIGSKGEGVMERKELLDKDGNLTVAEGDTIPVWFVKVERNEMRFTTKVGTGQAGLSALEDAYRAGIPVEGNVEKEIKGGFEIKVGGTVRAFCPYSQISLRRAANPAEFVGRQLLFKVVEFAERGRNIVLSHRAILEEEERQKREALKDTLKEGTTLTGTVTRLMPFGAFVDIGGVEGLIPISEAGWSRVKEIGDVLSVGEQVTALVKRIDWENNKISLSLRDVQADPWEGIAERFPEGSYHTGTVARLAPFGAFVTLAPGIDGLIHISKLGAGKRIAHPREVLKEGDAVEVTVEGVDRESRRLSLALAATKRAAEEEERSIAEFRGKGAAQTKDSMGTFGDILKAQLDDKK”, the protein production result is on record as “failed”.

As for “MIDSIRVEGFRGLKELELSSLRRINVIVGRNNSGKSTLLEALSLFLGSSDPGTFGNVLHEILIWRGWYGIQTVDDLFYNGGDSFSISSTGKTLEALNSKHSLEFKLNGEPFYKIDRESIRRLASQAVLLARFSPKENFEFLTPLTFRRFGYAESLYSYAYERKVVKDSIKVLNEAYPEVEGFSPLLKEDNWVLYVETKYGVYPYYLMGEGFKSAMIISFLSSLLRDGVLLIDSAEAFHHPKSLKVMIQTLVRGSEKNNVQVFLTTHSLELLDLMLEMGRDGFVIYMKNVEGRIEVESIEFQRASELRESIGVDLRGFLEHHHHHH”, the protein production entry is listed as “not failed”.

On to “MIDVINNQAFHLHNDQISYICALLPNGQLGHLYFGPRLSLTKNDLAYLSQGSSPFAWMANFSDDQEFALGDAQQEYPVYGTGDFRQGSLSVTQDDMPIYPNFVFKDDQLTHTKTRDLHHPTSFGNPALTDVLTIHLEDKTAQLLLTLQYTIFADSAAIVRSATLTNQGTAPVMIQRMLSGVLNLPQGRYDVVHLSGNWAKERHIQTQPLTQGTFSVESLRGASSHEQNPFVALHAAGQPFAAGDTYGANLIYSGNFLDSTEVNEWDQTRLLTGIHPASFSWRLDPKTSFTTPETVFSYSSGGLAGLAQANQRFVARHIIDPQWRQKQRPVVLNSWEATYFDLNEKKLLKLAALGKQVGVDCFVLDDGWFGTRDNDLSSLGDWFTNKHKFPDGLGHFAQEIHAMGLQFGLWFEPEMVSPRSQFFQAHPNWVVRPKKGRISITRNQYVLDFSNPAVVNNIFEQMQKVITETNLDYVKWDLNRSITEAFSPYLEKIGHPQGEFFHRYVQGVYTLYQKLLTAFPHLLIEGCAGGGGRFDLGILFYSPQIWTSDDSDAIERLAIQSGMALAYPLSCMSNHVTAVPNEQVGRSTPLVTRFRVAAFGILGYELDLTKLDARTLATIKAQIAYYHALQPLVLKGDFSLLLPRQSNGQNQVAWLLSAHDRKHLVLGFFRVLADADSRTVQYMKVPLAKSDTPYWVNQHTGPISGDVLQRVGVRLPVQFNGANRAQAQLIGDYQSVLLTFDSVASLDHILEHHHHHH”, for which the protein production entry was “failed”.

With “MIEFVYPHTQLVAGVDEVGRGPLVGAVVTAAVILDPARPIAGLNDSKKLSEKRRLALYEEIKEKALSWSLGRAEPHEIDELNILHATMLAMQRAVAGLHIAPEYVLIDGNRCPKLPMPAMAVVKGDSRVPEISAASILAKVTRDAEMAALDIVFPQYGFAQHKGYPTAFHLEKLAEHGATEHHRRSFGPVKRALGLAS”, the protein production result was “not failed”.

As to “MIEINIQGSSSAGNNYLLADGNSSLMLEAGLKPKDIMKQGINFSNIQGLLVTHEHGDHSKYINDILLAGRFDVWASRGTLEGLGINRRSHILKANQQQKIGDWLVKPFATIHDDKKARAREPLGFLILSPSGKKIVFATDTNYLPKTFKDVTHWLVECNHDIKLVRQSKLPKSVQDRILRTHMSIDACKKFFQSTDLTKTEEIYLIHLSDKNSDPEKFKEEIEKITNKKIIIA”, the protein production entry is reported as “failed”.

Take “MIEITFLGGGGGRFVTITQVRATGGFFIKASKNIYVDPGPGALVRMWRYKIDPRKVDVLFISHRHTDHCNDAEVLVEGMTYGVTKKRGTLIGSKSVVHGDENHTPALSKYHLDALEEVHAPNPGDRFKIGEDEMIITPSLHSDPTTIGFRLKTSYGDISYIPDTEYFEELVKWHDGARVIIAAVTRPRDMRIPFHLSSEDAVYLLKSMKQKPEVFIMTHAGMKMHFAGPYKEAQFIQNLTGVKTYVAKEGFKVSIGKEISVKTLRPARFVLEHHHHHH”: the protein production result was “not failed”.

Turning to “MIELEGVPELVDPVMVAAFEGWNDAGDAASTAVAHLDREWKGEVFAALDAEDYYDFQVNRPTVFMEDGVRKITWPTTRLSVVRVGGDKPRDLVLVRGIEPSMRWRSFCNELLGFAHELGVELVVVLGALLGDTPHTRPVPISGTTSDADLARRMDLEETKYEGPTGIVGILQEACTHAGVPAVSLWAAVPHYVSQPPNPKATLALLNRLEDLIGVRVPLGELPEDARAWQVGVDQLAAEDTEVAEYVQSLEEARDTA”, the protein production entry is “not failed”.

Consider “MIELIDPISKQRLEESPEGLRNENGIVVYPLINGAYRVAASDNYTSNFGLEWNTFQKTQIDKFSGNTVSEERLFAQTNWQKNGLEGETILEVGSGAGRFSQIMLDHTKATLYSVDYSEAVEANYRNNGPHERFKLFQASIYELPFKQASFDRVICLGVLQHTPDFKASVKALVEMVKPGGELVIDFYPIRNVFTKVHGKYLLRPILKRVNHHRLMSLIRNNIDFLISIYTFNRRIGLGVFNRFVPICEIERTLPKGMTPEQLKEWIILDTFDMFSPEYDQPQRLSTVAKWVKEFGMADVDASWVTYHGKLEAPTVRGRKVLEHHHHHH”, for which the protein production entry is “not failed”.

With “MIEMAYDDDENSMAIKVWRLYVDLWKLWYKKNERNLNKIDLSITEFTIMRHLIENGPMSMAAIASLINVTPGWITGVVDKMEEKNLVTRNRDSTDRRIIKIAITDRGREVYENAKKNHYAFIRKALAELNENELQQTYVLLQKMMDDVSKLESN”, the protein production result is “failed”.

As for “MIETTAALAEACTELAKSEFITIDTEFLRETTFWPELCLVQMASPTLEVLVDPLAKGIDLTPMFELMANPNVVKVFHAARQDIEIIYHLGGLIPHPIFDTQVAAMVCGFGDSISYDQLVQKIKNVQIDKSSRFTDWSRRPLTEKQLDYALADVTHLRDVYLSLKAQLEREGRSLWLTEEMNILESRDTYDMHPDDAWLRLKSRLRKPTELAILKFVAAWREREARSRNVPRSRVLKDDGIFEIAQQQPKDAEALSRLRTIPKGWERSASGTAIIETVNAALALPKEEMPKAPRHSHAPEGSGAAVELLKVLLKLTADKHGVAAKVIANSDDLDKIASEGENATVAALTGWRRELFGDVALKLINGEVALRFAGKKVEAVEVEAAASES”, the protein production result is listed as “failed”.

For “MIEWQLAELIPHAGDMILIDQVLDFDEEQINTRLTVRADGLFNQPDGSLPAWLGIELMAQSVAAYAGCQARSKGEAVKLGFLLGSRKFDCNVARFPAGSELHIHAIRSLQDDSGMGVFECTLTGPDITALARLNVYCPPNTADYLAEGAPALEHHHHHH”, the protein production entry is reported as “not failed”.

Regarding “MIFLVYDILLLLLSPLILIHHAWRTVSRGRSFAGFGERFGCIAPESLARVAGKGPIWVHAVSVGETMAVKPLLRELKRRFPERPLVLSSVTETGRSVAVTIPEADLVVYFPFDFGFAVARALRLVAPSLVIVVETEIWPNFLRHARRTGIPSVMVNGRISDRSFPRYLRFSRFFAPILNNLSALCMQSSEDARRIIAVGAPAERVHVTRNLKYDLPVRSLTPAERQELLCSYRLPAGALIITAGSTHAGEEEVVADIYARLAGERSDLFLVLVPRHPERAVEVGTLLEGKGIPFVRRSALDKVQEQPRGGVLLVDTIGELMKLYALSDVVFVGGSLVPVGGHNLLEPASVGAPVLFGPHMHNFREITALVLGAGAGEQVNDHGELEATLRRLLADEPARRSMGENGIRLMADQGGAAARHLEIIGPLIERGSEVARLEHHHHHH”, the protein production entry is on record as “not failed”.

Turning to “MIFMHPKTLEILKMFEEINKIPRRSKNEEKLALWLMEWAKNHNFEAKTDALNNVLIKVPPTPGYENSPAIVLQGHMDMVCEKCRDSGHDFSKDPIICIYEGDWLRGDGTSIGADNGIALAIGLVLAESGIKGEIEHPPLELLFTVDEETGLTGASGLEEDFFEGRILLNLDSEDEGIFILGCAGGQNSRIFLPLQWESFDYGKGSGFGLFRISAEGLEGGHSGVEIHRQRANGIQLLARMLSALKEKVGKENLRLVFFSGGSVHNAIPNYAEAFIVLSRNNEKQAEDFVSGLQKSFRGEYAVSDPEITLQLKEVENGIIFEASGGKITRKEVPSDRVFSVETEEKLYGVLLGMPHGVHRVSDTIPGLVETSNNLATVRTGEKEVRIVSSQRSSVMSRLAEVTEKVETVAKLAGARVEHECGYPAWEPDLQSGLLMKCRHAYSGTFGKEPEIKVVHAGLECGVIGSKCECIEMISFGPTIKDPHSPAERVYIPSIEKVWVFLENLMKSYRLEHHHHHH”, the protein production result is reported as “not failed”.

In the case of “MIGFLTDWGLKSHYVGVAKAVIKRINPSAEIIDITHEVEPFNVRKASHVLYRASLDFPPSTVFLVVVDYGVGTSRKAIVMKTKNDQYFVAPDNGVLTVVAEEYGVAEIREIENRELFYKKNPSFTFHGRDIFAPVAAHLDMGLPLERVGDRLLSYEVLKMRKPVVENEKVIGEVAIVDTFGNVSTNIPFDLFLKLSVDFDDVVRVRVGRKEFKAAVAKAFGDVDTGELLVHPDSAGFLEIAVNLGDASQVLSVKEGDEIEICR”, the protein production entry is recorded as “not failed”.

In the case of “MIGGSIISSNLLIRIFHGSCRKIIAFLFTILSLTLISGVLIYFVEGETGGFISRSSSVYWAITTLLTTGYGDTVLQTNFGRLVASVVKVLGFSIIVAPIVIIITEIYKSLSETSRKTKSLTISPFPLIWRYLNTQYFRML”, the protein production result is on record as “failed”.

For the sequence “MIGHRPLLAALERGHCASYTFVMKRRNFFRFSALGLLALAGGGLYARRSSASAYYSGPISDHFDGVRFFNPGGTPPGNFMGLLKWRFNGERATWPETYPSPFPFAKPEARIDGRDMRVTFVGHASFLIQTAGLNILVDPVWSQRTSPLSFAGPKRVNPPGIRFEDLPPIDLVLVTHNHYDHLDMETLKRLHVAHKPLFITPLGNDAVIRTGVEAARIKVGDWGDVVETGSVKIHFEPCHHWSARGLNDRSMALWAAFVIETPGGKIYHIGDTGFHEGLNYGAARKKHGEFRLANLPFGAYEPRWFMKGQHQNPAEAVEGMRLCGAAHVCGHHWGTVQLTDEAVDAPLAALKAALTEQGVEESRFRPMRPGEVFDVPSA”, the protein production result is “failed”.
